Measurements taken from patent US20250346679A1 (INVOX PHARMA, published 2025).

What was measured:
[1] = target: T1, biotinylated hPD-L1-Avi-His (Acro Biosystems, PD1-H82E5) (human, UniProt Q9NZQ7 19-238, biotinylated); experiment: SPR, antibody captured on Protein A chip, antigen in flow
T1 construct: bought; also called Human PD-L1-His; not shown: Avi and His tags of the bought product

[2] = target: T2, cPD-L1-His (Acro Biosystems, PD1-C52H4) (cynomolgus, UniProt Q9NZQ7 19-238 (human entry)); experiment: as above
T2 construct: bought; also called Cyno PD-L1-His; Cynomolgus PD-L1-His; not shown: His tag of the bought product
T2 sequence (Q9NZQ7 other isoform, or with tags, fused parts or gaps): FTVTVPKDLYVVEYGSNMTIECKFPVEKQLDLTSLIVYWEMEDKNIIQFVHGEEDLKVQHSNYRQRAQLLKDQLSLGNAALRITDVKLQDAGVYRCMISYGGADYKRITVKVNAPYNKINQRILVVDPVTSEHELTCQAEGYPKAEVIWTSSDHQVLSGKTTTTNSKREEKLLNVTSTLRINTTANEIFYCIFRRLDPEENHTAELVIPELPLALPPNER

[3] = target: T3, human CD137, cell-surface (human, UniProt Q07011 24-255); experiment: cell-based or functional assay
[4] = target: human PD-L1, cell-surface (human, UniProt Q9NZQ7 19-290); experiment: cell-based or functional assay
Sequence of human PD-L1, cell-surface (Q9NZQ7 19-290): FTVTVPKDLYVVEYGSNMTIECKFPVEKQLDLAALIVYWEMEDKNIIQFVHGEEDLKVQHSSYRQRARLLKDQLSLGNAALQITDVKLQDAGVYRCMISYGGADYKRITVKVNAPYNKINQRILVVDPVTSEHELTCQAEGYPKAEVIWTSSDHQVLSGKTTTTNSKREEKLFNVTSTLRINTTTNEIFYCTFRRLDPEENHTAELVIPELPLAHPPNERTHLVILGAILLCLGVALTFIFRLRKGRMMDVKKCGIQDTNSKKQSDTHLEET

[5] = target: T4, cynomolgus CD137, cell-surface (cynomolgus, UniProt Q07011 24-255 (human entry)); experiment: cell-based or functional assay
T4 chain: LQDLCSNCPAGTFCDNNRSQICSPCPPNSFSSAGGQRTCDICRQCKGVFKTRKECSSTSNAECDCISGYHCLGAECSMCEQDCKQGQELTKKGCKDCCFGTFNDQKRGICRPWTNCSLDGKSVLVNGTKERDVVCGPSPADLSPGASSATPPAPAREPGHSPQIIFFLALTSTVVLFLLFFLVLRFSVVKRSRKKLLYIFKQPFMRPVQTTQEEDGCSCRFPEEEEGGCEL

[6] = target: T1, biotinylated hPD-L1-Avi-His (Acro …); experiment: SPR, mAb^2 captured on Protein A chip, antigen in flow
Procedure: (§1) Briefly, the anti-human CD137/PD-L1 mAb², diluted in HBS-EP buffer (GE Healthcare, BR100188) at 2 μg/ml, were injected individually on flows cell 2, 3 and 4 of a Protein A chip (GE Healthcare, 29127556) at 30 μl/min to achieve a final response of approximately 110 RU. Two different recombinant human PD-L1 antigens were used i.e. hPD-L1-His-Avi (see Example 1.3 for antigen details) and biotinylated hPD-L1-Avi-His (Acrobiosystems, PD-1-H82E5). Human and cynomolgus PD-L1-His (Acrobiosystems, PD-1-C52H4) antigens, diluted in HBS-EP buffer, were injected on flow cell 1, 2, 3 or 4 as appropriate at a concentration range of 81 nM to 0.037 nM with 3-fold dilutions for 4 min at 75 μl/min and then allowed to dissociate in buffer for 10 min. Regeneration was achieved by injecting 10 mM glycine-HCL pH1.5 (GE Healthcare, Human Antibody Capture Kit, BR00356) for 30 sec at a rate of 30 μl/min. Subtracted data (flow cell 2−flow cell 1, flow cell 3−flow cell 1, or flow cell 4−flow cell 1) were analysed using BIAevaluation 3.2 Software (GE Healthcare) to identify binding using the model 1:1 binding with mass transfer, with refractive index (RI) constant 0.

[7] = target: T2, cPD-L1-His (Acro Biosystems, PD1-C52H4); experiment: as above
Procedure: as §1

[8] = target: T5, hCD137-mFc-Avi (human; mouse, UniProt Q07011 24-186, biotin on the Avi sequence where the biotinylated form was used); experiment: SPR, mAb^2 captured by anti-human Fab, antigen in flow
T5 construct: also called human CD137-mFc-Avi; dimeric human CD137; not shown: mouse IgG2a Fc domain (mIgG2a Fc)
T5 sequence (Q07011 24-186): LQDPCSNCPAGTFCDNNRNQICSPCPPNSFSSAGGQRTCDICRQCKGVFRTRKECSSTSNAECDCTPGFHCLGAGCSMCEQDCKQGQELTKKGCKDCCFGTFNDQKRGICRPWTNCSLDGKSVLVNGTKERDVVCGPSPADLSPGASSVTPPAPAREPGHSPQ
Procedure: (§2) The binding of the anti-human CD137/PD-L1 mAb² to recombinant dimeric human and cynomolgus CD137 antigens was also measured by SPR using a Biacore T200 processing unit (GE Healthcare).
(§3) Briefly, 20 μg/ml anti-human Fab antibody (GE Healthcare, Human Fab Capture kit 28958325) was coated on flow cells 1, 2, 3 and 4 of a Biacore sensor S chip CM5 (GE Healthcare, BR100530) achieving a final response of approximately 5000 RU. […] The recombinant dimeric antigens, human CD137-mFc-Avi or cynomolgus CD137-mFc-Avi (see Example 1.1 for antigen details) diluted in HBS-EP buffer, were injected on flow cell 1, 2, 3 or 4 as appropriate at a concentration range of 81 nM to 0.037 nM with 3-fold dilutions for 4 minutes at 70 μl/min and then allowed to dissociate in buffer for 10 minutes. Regeneration was achieved by injecting 10 mM glycine pH 2.1 (GE Healthcare, Human Fab Capture kit 28958325) for 60 seconds at a rate of 30 μl/min. Data analysis was performed as described in Example 9.1.

[9] = target: T6, cCD137-mFc-Avi (cynomolgus; mouse); experiment: as above
T6 construct: also called cynomolgus CD137-mFc-Avi; Cyno CD137-mFc-Avi; not shown: mouse IgG2a Fc domain (mIgG2a Fc)
T6 chain: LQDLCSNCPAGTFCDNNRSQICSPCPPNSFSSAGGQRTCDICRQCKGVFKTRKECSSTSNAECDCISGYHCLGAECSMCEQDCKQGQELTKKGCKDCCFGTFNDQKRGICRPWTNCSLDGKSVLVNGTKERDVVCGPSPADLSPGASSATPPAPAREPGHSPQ
Procedure: as §2, §3

[10] = target: Human FcRn (Acro Biosystems, FCM-H5286) (human, UniProt P55899 24-297; P61769 21-119); experiment: SPR, mAb^2 immobilised, FcRn in flow, pH 6.0, steady state affinity; pH 6.0
Sequence of Human FcRn (Acro Biosystems, FCM-H5286) (P55899 24-297 limits assumed, chain 1 of 2): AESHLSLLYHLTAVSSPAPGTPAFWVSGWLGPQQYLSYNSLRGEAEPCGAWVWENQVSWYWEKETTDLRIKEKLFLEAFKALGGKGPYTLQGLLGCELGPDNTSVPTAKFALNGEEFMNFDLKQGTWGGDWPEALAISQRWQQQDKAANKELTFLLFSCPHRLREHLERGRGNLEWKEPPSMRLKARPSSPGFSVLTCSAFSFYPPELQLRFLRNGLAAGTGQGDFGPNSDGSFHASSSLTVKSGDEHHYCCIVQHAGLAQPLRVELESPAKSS
Sequence of Human FcRn (Acro Biosystems, FCM-H5286) (P61769 21-119 limits assumed, chain 2 of 2): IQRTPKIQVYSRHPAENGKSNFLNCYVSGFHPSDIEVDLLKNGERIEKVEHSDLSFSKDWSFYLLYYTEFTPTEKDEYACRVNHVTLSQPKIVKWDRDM
From the text: (§4) The neonatal Fc receptor (FcRn) binding is critical for antibody recycling (Martins et al., 2016). […] G1-AA/HeID1.3 was included as an isotype control IgG control lacking mutations in the CH3 domain.
(§5) Briefly, mAb² were individually coated on flow cell 2, 3 and 4 of Series S Sensor Chip CM5 (GE Healthcare, BR100530) to achieve a response of approximately 1000 RU. Flow cell 1 was activated/deactivated but left blank as a reference. Human FcRn (Acro Biosystems, FCM-H5286) or mouse FcRn (R&D systems, 9114-Fc) was dialysed and diluted in MHBS-EP⁺B pH 6.0 or pH 7.4 buffer (10 mM MES, FortéBio, 18-5026; 1×HBS-EP, GE Healthcare, BR100669; 0.1 mg/ml BSA, Sigma, A7906) and injected on flow cell 1, 2, 3 and 4 at 2000-3000 nM with 2-fold dilutions for 1 min at 80 μl/min and then allowed to dissociate in buffer for 3 min. […] Subtracted data (flow cell 2−flow cell 1, flow cell 3−flow cell 1, or flow cell 4−flow cell 1) was analysed using Biacore T200 Evaluation Software 2.0 to identify binding using the model steady state affinity.

[11] = target: T7, mouse FcRn (R&D systems, 9114-Fc) (mouse, UniProt Q61559 22-297; P01887 21-119, limits assumed); experiment: as above
T7 sequence (looked up) 1: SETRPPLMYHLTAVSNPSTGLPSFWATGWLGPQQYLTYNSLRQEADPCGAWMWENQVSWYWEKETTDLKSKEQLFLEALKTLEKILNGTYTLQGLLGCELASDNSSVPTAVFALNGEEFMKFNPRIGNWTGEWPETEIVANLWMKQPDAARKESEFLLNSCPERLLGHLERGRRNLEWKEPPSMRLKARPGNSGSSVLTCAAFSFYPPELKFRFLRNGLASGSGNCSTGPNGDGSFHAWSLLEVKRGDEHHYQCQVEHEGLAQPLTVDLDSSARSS
T7 sequence (looked up) 2: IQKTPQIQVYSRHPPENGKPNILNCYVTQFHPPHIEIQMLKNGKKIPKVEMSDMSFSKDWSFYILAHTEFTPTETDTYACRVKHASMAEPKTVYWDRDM
From the text: as §4, §5

[12] = target: T3, human CD137, cell-surface; experiment: cell-based or functional assay; remark: listed apart in the source
[13] = target: T3, human CD137, cell-surface; experiment: cell-based or functional assay; remark: listed apart in the source
[14] = target: T3, human CD137, cell-surface; experiment: cell-based or functional assay; remark: listed apart in the source
[15] = target: T3, human CD137, cell-surface; experiment: cell-based or functional assay; remark: listed apart in the source

T1 sequence (Q9NZQ7 19-238): as the sequence (Q9NZQ7 other isoform, or with tags, fused parts or gaps) above, with T33A, S34A, N62S, Q68R, R82Q, L173F, A185T, I192T, L215H counted along it

Row | Binder | EC50 (nM) (crosslinked), mIL-2 release, DO11.10.cCD137 with HEK.cyPD-L1 [5] | Emax (pg/ml) (crosslinked), mIL-2 release, DO11.10.cCD137 with HEK.cyPD-L1 [5] [pg/mL] | Kd [6] [nM] | Kd [7] [nM] | Kd [8] [nM] | Kd [9] [nM] | Kd [10] [nM] | Kd [11] [nM] | also measured
1 | G1-AA/G12v2 (antibody, human IgG1, kappa, L234A L235A, V domains shown, anti-PD-L1 IgG1 with LALA) VH: EVQLVQSGAEVKRPGASVKVSCKASGYTFTSYGISWVRQAPGQGLEWMGWISAYSGGTNYAQKLQGRVTMTTDTSTSTAYMELRSLRSDDTAVYYCARDLFPTIFGVSYYYYWGQGTLVTVSS VL: DIQMTQSPSTLSASVGDRVTITCRASQSISGRLAWYQQKPGKAPNLLIYEASNLESGVPSRFSGSGSGTEFTLTISSLQPEDFATYYCQQSYSWPRTFGQGTKVEIKR | – | – | – | – | – | – | – | – | Kd [1]: 0.44 nM; Kd [2]: 0.75 nM
2 | FS22-053-008-AA/E12v2 (bispecific antibody, human IgG1, kappa, L234A L235A) heavy: EVQLVQSGAEVKRPGASVKVSCKASGYPFTSYGISWVRQAPGQGLEWMGWISAYSGGTNYAQKLQGRVTMTTDTSTSTAYMELRSLRSDDTAVYYCARDLFPTIFGVSYYYYWGQGTLVTVSSASTKGPSVFPLAPSSKSTSGGTAALGCLVKDYFPEPVTVSWNSGALTSGVHTFPAVLQSSGLYSLSSVVTVPSSSLGTQTYICNVNHKPSNTKVDKKVEPKSCDKTHTCPPCPAPEAAGGPSVFLFPPKPKDTLMISRTPEVTCVVVDVSHEDPEVKFNWYVDGVEVHNAKTKPREEQYNSTYRVVSVLTVLHQDWLNGKEYKCKVSNKALPAPIEKTISKAKGQPREPQVYTLPPSRDELNPPYLFSNQVSLTCLVKGFYPSDIAVEWESNGQPENNYKTTPPVLDSDGSFFLYSKLTVDYWRWLEGNVFSCSVMHEALHNHYTQKSLSLSPG light: DIQMTQSPSTLSASVRDRVIITCRASQSIGNRLAWYQHKPGKAPKLLIYEASTSETGVPSRFSGSGSGTDFTLTISSLQPEDFATYYCQQSYSTPYTFGQGTKLEIKRTVAAPSVFIFPPSDEQLKSGTASVVCLLNNFYPREAKVQWKVDNALQSGNSQESVTEQDSKDSTYSLSSTLTLSKADYEKHKVYACEVTHQGLSSPVTKSFNRGEC | 0.08 | 9010 | 0.19 | 0.25 | 2.6 | 0.6 | 998 | 177 | EC50 (nM), hIL-2 release, CD8+ T cells, donor 171115A, HEK.hPD-L1 XL [3]: 0.1 nM; EC50 (nM), hIL-2 release, CD8+ T cells, donor 171115A, MDA-MB-231 XL [3]: 0.01 nM; EC50 (nM), hIL-2 release, CD8+ T cells, donor 171115B, HEK.hPD-L1 XL [3]: 0.11 nM; EC50 (nM), hIL-2 release, CD8+ T cells, donor 171115B, MDA-MB-231 XL [3]: 0.02 nM; EC50 (nM), IFN-γ release, human MLR [4]: 0.04 nM; Emax (pg/ml), IFN-γ release, human MLR [4]: 3130 pg/mL
3 | G1-AA/20H4.9 (antibody, V domains shown) VH: QVQLQQWGAGLLKPSETLSLTCAVYGGSFSGYYWSWIRQSPEKGLEWIGEINHGGYVTYNPSLESRVTISVDTSKNQFSLKLSSVTAADTAVYYCARDYGPGNYDWYFDLWGRGTLVTVSS VL: EIVLTQSPATLSLSPGERATLSCRASQSVSSYLAWYQQKPGQAPRLLIYDASNRATGIPARFSGSGSGTDFTLTISSLEPEDFAVYYCQQRSNWPPALTFGGGTKVEIKR | – | – | – | – | – | – | – | – | EC50, hIL-2 release, primary human CD8+ T cells, crosslinked with anti-hCH2 [12]: 0.5 nM; EC50 (nM), hIL-2 release, CD8+ T cells, donor 171115A, HEK.hPD-L1 assay, crosslinked with anti-hCH2 [3]: 0.21 nM; EC50 (nM), hIL-2 release, CD8+ T cells, donor 171115A, MDA-MB-231 assay, crosslinked with anti-hCH2 [3]: 0.31 nM; EC50 (nM), hIL-2 release, CD8+ T cells, donor 171115B, HEK.hPD-L1 assay, crosslinked with anti-hCH2 [3]: 0.29 nM; EC50 (nM), hIL-2 release, CD8+ T cells, donor 171115B, MDA-MB-231 assay, crosslinked with anti-hCH2 [3]: 0.28 nM; EC50 (nM), IFN-γ release, human MLR, crosslinked with anti-human CH2 [13]: 1.9 nM; Emax (pg/ml), IFN-γ release, CEFT antigen recall assay, crosslinked with anti-human CH2 (EC50 N/A) [14]: 13000 pg/mL; EC50 (nM), IFN-γ release, CEF antigen recall assay, crosslinked with anti-human CH2 [15]: 0.33 nM
4 | FS22-172-003-AA/lam-G02v3 (bispecific antibody, human IgG1, L234A L235A, see recheck) heavy: EVQLVQSGAEVKRPGASVKVSCKASGYTFTSYGISWVRQAPGQGLEWMGWISAYSGGTNYAQKLQGRVTMTTDTSTSTAYMELRSLRSDDTAVYYCARDLFPTIFGVSYYYYWGQGTLVTVSSASTKGPSVFPLAPSSKSTSGGTAALGCLVKDYFPEPVTVSWNSGALTSGVHTFPAVLQSSGLYSLSSVVTVPSSSLGTQTYICNVNHKPSNTKVDKKVEPKSCDKTHTCPPCPAPEAAGGPSVFLFPPKPKDTLMISRTPEVTCVVVDVSHEDPEVKFNWYVDGVEVHNAKTKPREEQYNSTYRVVSVLTVLHQDWLNGKEYKCKVSNKALPAPIEKTISKAKGQPREPQVYTLPPSRDELPYIIPPYNQVSLTCLVKGFYPSDIAVEWESNGQPENNYKTTPPVLDSDGSFFLYSKLTVGADRWLEGNVFSCSVMHEALHNHYTQKSLSLSPG light: QSALTQPASVSGSPGQSITISCTGTSSDVGGYNYVSWYQQFPGKAPKLMIFEVTNRPSGVSDRFSGSKSDNTASLTISGLQAEDEAEYYCSSFKRGSTLVVFGGGTKLTVLGQPAAAPSVTLFPPSSEELQANKATLVCLISDFYPGAVTVAWKADSSPVKAGVETTTPSKQSNNKYAASSYLSLTPEQWKSHRSYSCQVTHEGSTVEKTVAPTECS | 0.08 | 12300 | 1.54 | 1.91 | 1.3 | 2.2 | 1220 | 167 | –
